Ends that are not written are not given here.
T1: LexA-E12477-654 (amino acids 477 to 654 of human E12 fused to LexA) (human, UniProt P15923 477-654)
T1 construct: not shown: LexA encoded by the LexA gene of pEG202, N-terminal fusion partner
T1 sequence (looked up): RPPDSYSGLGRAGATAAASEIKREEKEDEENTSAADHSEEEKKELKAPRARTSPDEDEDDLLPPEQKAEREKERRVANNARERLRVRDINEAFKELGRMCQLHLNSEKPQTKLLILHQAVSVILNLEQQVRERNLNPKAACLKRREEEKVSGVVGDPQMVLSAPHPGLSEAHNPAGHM

B1: Full-length human UBCH5 (interactant in the yeast two-hybrid interaction trap) (enzyme, not shown: large carriers)
chain: not shown

Assays:
[1] = molecular target: T2, AD-UBCE2A (full-length UBCE2A fused to the B42 transcription activation domain) (rat, UniProt P63279 1-158 (human entry)); experiment: yeast two-hybrid interaction trap
T2 construct: also called AD-UBCE2A library isolate; UBPCE2A

[2] = molecular target: T1, LexA-E12477-654 (amino acids 477 to 654 …); experiment: yeast two-hybrid interaction trap
[3] = molecular target: T2, AD-UBCE2A (full-length UBCE2A fused to …); experiment: yeast two-hybrid interaction trap, beta-galactosidase
Text: In order to assess the specificity of interaction and to map the interaction domains, cells of the yeast strain EGY48/pSH18-34 were transformed with the indicated bait constructs and library/interactant plasmids, and plated on Ura⁻ His⁻ Trp⁻ glucose plates. The bait constructs used in the specificity test were: LexA-Id3, which contains all of the Id3 coding sequence; LexA-c-Myc, which contains the C-terminal 137 amino acids of mouse c-Myc; LexA-Max, which contains all of the rat Max coding sequences; and LexA-Oct1, which includes amino acids 294-429 of human Oct 1 (containing the POU domain). Eight to twelve colonies from each bait/interactant combination were picked and plated in duplicate on Ura⁻ His⁻ Trp⁻ X-gal plates containing either 2% glucose or 2% galactose, 1% raffinose, and the color was assessed after 48 hours.
The specificity of the interaction partners was further examined by transforming yeast harboring expression plasmids encoding LexA fusions with various known HLH proteins. No interaction was detected with the HLH protein, Id3 (Christy et al., 1991, Proc. Natl. Acad. Sci. USA 88:1815-1819), the bHLH-leucine zipper protein, max (Blackwood et al., 1991, Science 251:1211-1217), or the homeodomain protein, Oct 1 (Sturm et al., 1988, Genes & Dev. 2:1582-1599); only weak promoter activity was discerned following introduction of LexA-myc. […]

[4] = molecular target: B1; experiment: yeast two-hybrid interaction trap

T2 sequence (P63279 whole entry, the tested form may be a part): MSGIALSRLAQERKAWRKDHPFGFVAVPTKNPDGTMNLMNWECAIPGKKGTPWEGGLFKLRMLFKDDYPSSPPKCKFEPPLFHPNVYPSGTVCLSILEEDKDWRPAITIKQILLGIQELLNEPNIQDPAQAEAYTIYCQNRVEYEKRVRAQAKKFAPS

binding result [1]	binding result [3]	Binder	other results
no binding		LexA-E12539-654 (other, human, UniProt P15923 539-654, looked up, also called LexA-E12 lacking this region; not shown: LexA encoded by the LexA gene of pEG202, N-terminal fusion partner) PPEQKAEREKERRVANNARERLRVRDINEAFKELGRMCQLHLNSEKPQTKLLILHQAVSVILNLEQQVRERNLNPKAACLKRREEEKVSGVVGDPQMVLSAPHPGLSEAHNPAGHM	
		B1	binding result [2]: no binding
	no binding	LexA-Id3 (all of the Id3 coding sequence) (other, rat, UniProt P41138 1-119, looked up, Bait for the specificity test; not shown: LexA encoded by the LexA gene of pEG202, N-terminal fusion partner) MKALSPVRGCYEAVCCLSERSLAIARGRGKSPSAEEPLSLLDDMNHCYSRLRELVPGVPRGTQLSQVEILQRVIDYILDLQVVLAEPAPGPPDGPHLPIQTAELTPELVISKDKRSFCH	
binds		LexA-E12477-530 (other, human, UniProt P15923 477-530, looked up, not shown: LexA encoded by the LexA gene of pEG202, N-terminal fusion partner) LexA-RPPDSYSGLGRAGATAAASEIKREEKEDEENTSAADHSEEEKKELKAPRARTSP	binding result [4]: no binding
	no binding	LexA-Oct1 (amino acids 294-429 of human Oct 1, containing the POU domain) (other, UniProt P14859 294-429, looked up, range 294-429; Bait for the specificity test; not shown: LexA encoded by the LexA gene of pEG202, N-terminal fusion partner) TFKQRRIKLGFTQGDVGLAMGKLYGNDFSQTTISRFEALNLSFKNMCKLKPLLEKWLNDAENLSSDSSLSSPSALNSPGIEGLSRRRKKRTSIETNIRVALEKSFLENQKPTSEEITMIADQLNMEKEVIRVWFCN	

From patent US20020128189A1 (Harvard, published 2002)
